Ki data for 20 molecules are collected here from US6906033 (dated 2005).

By Ki is commonly meant a measure of affinity in units of concentration, obtained from inhibition or displacement.

Where two headings read alike, the source gives them in different places.

Holding throughout (test): enzyme inhibition
The target in assay [1] is T1, human plasma kallikrein (human, UniProt P03952 20-638).
Assay [2] has as its target T2, human factor XIIa (human, UniProt P00748 20-615, biotinylated with Biotin Ester (Zymed); sites not stated).
T2 chain: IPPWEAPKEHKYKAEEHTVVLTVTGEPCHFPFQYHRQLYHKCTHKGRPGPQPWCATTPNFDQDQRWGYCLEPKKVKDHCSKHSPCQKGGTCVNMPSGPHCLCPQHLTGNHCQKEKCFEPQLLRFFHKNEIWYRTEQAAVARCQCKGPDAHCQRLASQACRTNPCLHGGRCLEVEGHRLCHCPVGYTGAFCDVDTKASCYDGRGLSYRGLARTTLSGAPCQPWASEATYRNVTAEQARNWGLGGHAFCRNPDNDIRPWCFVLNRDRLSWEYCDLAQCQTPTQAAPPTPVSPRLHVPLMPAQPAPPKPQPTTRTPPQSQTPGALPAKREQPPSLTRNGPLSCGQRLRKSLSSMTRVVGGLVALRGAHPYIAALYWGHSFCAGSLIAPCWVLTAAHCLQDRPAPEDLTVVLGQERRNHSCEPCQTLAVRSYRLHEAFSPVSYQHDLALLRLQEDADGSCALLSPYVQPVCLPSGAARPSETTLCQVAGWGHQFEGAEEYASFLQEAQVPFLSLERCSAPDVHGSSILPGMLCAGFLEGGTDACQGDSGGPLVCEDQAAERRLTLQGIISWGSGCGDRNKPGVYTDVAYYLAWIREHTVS

In assay [3] the target is T1, human plasma kallikrein. The source holds these as a separate data set.
The target in assay [4] is T3, human factor Xa (human, UniProt P00742 41-179; P00742 235-488).
T3 chain 1: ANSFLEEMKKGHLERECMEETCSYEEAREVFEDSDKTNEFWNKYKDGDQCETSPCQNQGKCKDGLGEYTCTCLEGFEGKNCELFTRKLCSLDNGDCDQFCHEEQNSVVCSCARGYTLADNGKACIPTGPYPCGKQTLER
T3 chain 2: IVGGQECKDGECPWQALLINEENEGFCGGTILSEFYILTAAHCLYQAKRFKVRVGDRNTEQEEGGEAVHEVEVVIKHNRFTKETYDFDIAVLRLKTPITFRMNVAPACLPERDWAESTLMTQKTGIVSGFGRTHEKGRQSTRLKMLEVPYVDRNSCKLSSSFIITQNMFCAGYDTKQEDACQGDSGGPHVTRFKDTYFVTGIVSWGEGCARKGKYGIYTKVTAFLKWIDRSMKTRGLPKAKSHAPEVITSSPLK

Assay [5] has as its target T2, human factor XIIa.
Assay [6] deals with T1, human plasma kallikrein. The source holds these as a separate data set.
The target in assay [7] is T3, human factor Xa.
For assay [8], the target named is T2, human factor XIIa.
In assay [9] the target is T3, human factor Xa.
For assay [10], the target named is Plasmin.
Assay [11] deals with Plasmin. The source holds these as a separate data set.
Assay [12] deals with T1, human plasma kallikrein. The source holds these as a separate data set.
In assay [13] the target is Plasmin. The source holds these as a separate data set.

T1 sequence (P03952 20-638): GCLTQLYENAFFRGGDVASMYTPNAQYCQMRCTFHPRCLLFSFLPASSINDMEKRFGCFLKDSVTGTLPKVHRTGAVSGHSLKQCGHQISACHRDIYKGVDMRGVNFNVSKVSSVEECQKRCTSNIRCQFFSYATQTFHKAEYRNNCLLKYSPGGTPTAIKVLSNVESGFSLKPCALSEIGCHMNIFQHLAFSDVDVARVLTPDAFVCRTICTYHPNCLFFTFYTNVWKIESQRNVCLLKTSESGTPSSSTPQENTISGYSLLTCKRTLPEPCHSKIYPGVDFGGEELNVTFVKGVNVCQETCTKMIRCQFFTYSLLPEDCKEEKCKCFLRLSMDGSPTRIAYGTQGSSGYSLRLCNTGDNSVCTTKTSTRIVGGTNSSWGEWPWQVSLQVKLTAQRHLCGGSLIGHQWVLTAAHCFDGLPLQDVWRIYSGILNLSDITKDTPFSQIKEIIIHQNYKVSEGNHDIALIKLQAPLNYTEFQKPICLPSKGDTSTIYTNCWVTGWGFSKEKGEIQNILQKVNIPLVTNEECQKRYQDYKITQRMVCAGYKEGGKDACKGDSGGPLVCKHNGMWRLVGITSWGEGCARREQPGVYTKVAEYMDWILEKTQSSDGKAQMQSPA

B1: TW6202 (protein)
chain: EVVREVCSEQAETGPCRAGIWRWYFDVTEGKCAPFFYGGCGGNRNNFDTEEYCMAVCGSAI
For the molecule B1, the Ki in assay [1] was found to be 128 nM; in assay [2], 1240 nM.

B2: TW6186 (protein)
chain: EVVREVCSEQAETGPCRAMHSRWYFDVTEGKCAPFFYGGCYGNRNNFDTEEYCMAVCGSAI
On to B2, for which the Ki in [3] came out at 0.48 nM; in assay [4], 11 nM; in assay [5], 186 nM.

B3: TW6189 (protein)
chain: EVVREVCSEQAETGPCRAMIWRWYFDVTEGKCAPFFYGGCYGNRNNFDTEEYCMAVCGSAI
Consider B3, for which the Ki in [3] was 4 nM; in assay [4], 34 nM.

B4: DD114 (protein)
chain: EVVREVCSEQAETGPCRAAISRWYFDVTEGKCAPFFYGGCRGNRNNFDTEEYCMAVCGSAI
Regarding B4, the Ki in assay [1] was found to be 0.7 nM; in assay [2], 224 nM.

B5: TW6201 (protein)
chain: EVVREVCSEQAETGPCRAGIYRWYFDVTEGKCAPFFYGGCGGNRNNFDTEEYCMAVCGSAI
For B5, the inhibition constant (Ki) in [1] came out at 34.6 nM; in assay [2], 419 nM.

B6: TW6167 (protein)
chain: EVVREVCSEQAEPGPCRAMISRWYFDVTEGKCAPFFYGGCGGNRNNFDTEEYCMAVCGSAI
Regarding B6, the inhibition constant Ki in assay [6] was 61 nM; in assay [7] it was 288 nM; in assay [8] it was 3640 nM.

B7: DD109 (protein)
chain: EVVREVCSEQAETGPCRAIISRWYFDVTEGKCAPFFYGGCGGNRNNFDTEEYCMAVCGSAI
Consider B7, for which the Ki was found to be 9.5 nM in assay [6], 421 nM in [7] and 1680 nM in [8].

B8: DD113 (protein)
chain: EVVREVCSEQAETGPCRALIPRWYFDVTEGKCAPFFYGGCGGNRNNFDTEEYCMAVCGSAI
For the molecule B8, the inhibition constant (Ki) in assay [1] worked out at 0.85 nM; in assay [9], 74 nM; in assay [2], 293 nM.

B9: BG003 (protein)
chain: EVVREVCSEQAETGPCRAMLHRWYFDVTEGKCAPFFYGGCGGNRNNFDTEEYCMAVCGSAI
Consider B9, for which the Ki came to 36 nM in assay [1] and 467 nM in assay [2].

B10: TW6187 (protein)
chain: EVVREVCSEQAETGPCRAMIFRWYFDVTEGKCAPFFYGGCYGNRNNFDTEEYCMAVCGSAI
Regarding B10, the inhibition constant Ki is 3.8 nM in assay [3], 15 nM in assay [4] and 92 nM in assay [5].

B11: DD108 (protein)
chain: EVVREVCSEQAETGPCRAAISRWYFDVTEGKCAPFFYGGCGGNRNNFDTEEYCMAVCGSAI
Consider B11, for which the Ki in assay [6] was determined as 1.7 nM; in assay [7], 123 nM; in assay [8], 1600 nM.

B12: TW6185 (peptide)
chain: EVVREVCSEQAETGPCRAMHWRWYFDVTEGKCAPFFYGGCGGNRNNFDTEEYCMAVCGSAI
In turn, B12 registered an inhibitory constant (Ki) in assay [10] of 18.6 nM.

B13: TW6169 (protein)
chain: EVVREVCSEQAETGPCRALILRWYFDVTEGKCAPFFYGGCGGNRNNFDTEEYCMAVCGSAI
Turning to B13, the Ki was 1.2 nM in assay [1], 111 nM in [9] and 619 nM in [2].

B14: TW6190 (protein)
chain: EVVREVCSEQAETGPCRAAISRWYFDVTEGKCAPFFYGGCYGNRNNFDTEEYCMAVCGSAI
B14: the values for the Ki in assay [1], in [9] and in [2] were 0.83 nM, 1400 nM and 589 nM, respectively.

B15: DD185 (peptide)
chain: EVVREVCSEQAETGPCRAAIFRWYFDVTEGKCAPFFYGGCGGNRNNFDTEEYCMAVCGSAI
For B15, in assay [11], the Ki stood at 8.71 nM. That is a single-digit nanomolar value.

B16: TW6203 (protein)
chain: EVVREVCSEQAETGPCRAGIPRWYFDVTEGKCAPFFYGGCGGNRNNFDTEEYCMAVCGSAI
With B16, the Ki was found to be 31.2 nM in assay [1] and 5040 nM in assay [2].

B17: DD110 (protein)
chain: EVVREVCSEQAETGPCRALISRWYFDVTEGKCAPFFYGGCGGNRNNFDTEEYCMAVCGSAI
As for B17, the Ki in assay [6] was 2.1 nM; in assay [7], 55 nM; in [8], 624 nM.

B18: TW6188 (protein)
chain: EVVREVCSEQAETGPCRAMIYRWYFDVTEGKCAPFFYGGCYGNRNNFDTEEYCMAVCGSAI
For the molecule B18, the Ki in assay [3] was found to be 4 nM; in assay [4], 24 nM; in assay [5], 419 nM.

B19: wild-type KPI (-4→57) (peptide)
chain: LDKREVVREVCSEQAETGPCRAMISRWYFDVTEGKCAPFFYGGCGGNRNNFDTEEYCMAVCGSAI
Regarding B19, the Ki came to 45 nM in [12], 45 nM in [6], 161 nM in assay [7] and 3720 nM in assay [8].

B20: KPI (-4-57) (peptide)
chain: LDKREVVREVCSEQAETGPCRAMISRWYFDVTEGKCAPFFYGGCGGNRNNFDTEEYCMAVCGSAI
Turning to B20, the inhibition constant (Ki) in [13] is 34 nM.
